Assay results reported in paper PMC10976854 (Cell, 2024).

Molecular target: the molecule itself
Assay: crystal structure

B1: mZP2-N2N3 (mouse ZP2 NTR ΔN1 construct) (domain or fragment, UniProt P20239 135-360, looked up)
chain: PAIQAETHEISEIVVCRRDLISFSFPQLFSRLADENQNVSEMGWIVKIGNGTRAHILPLKDAIVQGFNLLIDSQKVTLHVPANATGIVHYVQESSYLYTVQLELLFSTTGQKIVFSSHAICAPDLSVACNATHMTLTIPEFPGKLESVDFGQWSIPEDQWHANGIDKEATNGLRLNFRKSLLKTKPSEKCPFYQFYLSSLKLTFYFQGNMLSTVIDPECHCESPVS
B1: binds.
